Data on six substances can be found in the supplement of paper PMC5998384.

For data set [1], the system named is HeLa Kyoto. As to the kind of experiment: melting temperature (median over replicates), in situ; higher = more thermally stable.
Data set [2] relates to HeLa Kyoto. As to the kind of experiment: thermal stability score vs G1/S (z-score of summed log2 fold changes over temperatures); higher = more thermally stable than in G1/S.
Data set [3] concerns HeLa Kyoto. Nature of the data set: solubility in G1/S (NP-40 vs SDS abundance) (log2 ratio); higher = more soluble. Conditions: cell cycle stage: G1/S.
Data set [4] has as its system HeLa Kyoto. Nature of the data set: solubility change mitosis vs G1/S (difference of NP-40 vs SDS log2 ratios) (log2 ratio difference); higher = more soluble in mitosis.
[5] abbreviates: cell cycle stage: early G1 (4.5 h after nocodazole release).
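Throughout, for melting temperature (median over replicates), in situ: HeLa Kyoto cells synchronized by double thymidine or nocodazole block, proteins quantified by TMT10plex mass spectrometry, three independent biological replicates.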
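Throughout, for solubility change mitosis vs G1/S (difference of NP-40 vs SDS log2 ratios): synchronized HeLa Kyoto cells (double thymidine block for G1/S, nocodazole release for mitosis), protein amounts in NP-40 versus SDS lysates quantified by mass spectrometry, three biological replicates.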
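Throughout, for solubility in G1/S (NP-40 vs SDS abundance): HeLa Kyoto cells arrested at G1/S by double thymidine block, proteins quantified by TMT10plex mass spectrometry in mild NP-40 versus SDS extracts, three biological replicates.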
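Throughout, for thermal stability score vs G1/S (z-score of summed log2 fold changes over temperatures): synchronized HeLa Kyoto cells, proteins quantified by TMT10plex mass spectrometry, three biological replicates, mitosis taken 0.5 h after nocodazole release, G1/S directly after double thymidine block.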

For the substance “MDSALSDPHNGSAEAGGPTNSTTRPPSTPEGIALAYGSLLLMALLPIFFGALRSVRCARGKNASDMPETITSRDAARFPIIASCTLLGLYLFFKIFSQEYINLLLSMYFFVLGILALSHTISPFMNKFFPASFPNRQYQLLFTQGSGENKEEIINYEFDTKDLVCLGLSSIVGVWYLLRKHWIANNLFGLAFSLNGVELLHLNNVSTGCILLGGLFIYDVFWVFGTNVMVTVAKSFEAPIKLVFPQDLLEKGLEANNFAMLGLGDVVIPGIFIALLLRFDISLKKNTHTYFYTSFAAYIFGLGLTIFIMHIFKHAQPALLYLVPACIGFPVLVALAKGEVTEMFSYEESNPKDPAAVTESKEGTEASASKGLEKKEK [HM13]”, the melting temperature was 60.5 °C with HeLa Kyoto [1] (cell cycle stage: G1/S) and 59.8 °C in the data set on HeLa Kyoto [1] (cell cycle stage: mitosis). The thermal stability score in the data set on HeLa Kyoto [2] (setting [5]) is -1.07; with HeLa Kyoto [2] (cell cycle stage: mitosis), -1.15. Also, the “solubility in G1/S (log2)” value with HeLa Kyoto [3] is -0.106. Further, the “solubility change mitosis (log2)” value in the data set on HeLa Kyoto [4] is -0.167.

In the case of MYO10, the melting temperature with HeLa Kyoto [1] (cell cycle stage: G1/S) came out at 48.3 °C; with HeLa Kyoto [1] (cell cycle stage: mitosis), 49.4 °C. The thermal stability score was found to be 0.691 in the data set on HeLa Kyoto [2] (setting [5]) and 0.867 in the data set with HeLa Kyoto [2] (cell cycle stage: mitosis). Also, the “solubility in G1/S (log2)” value in the data set with HeLa Kyoto [3] was -0.269. Besides, the “solubility change mitosis (log2)” value with HeLa Kyoto [4] is -0.176.

As to “MSVGFIGAGQLAYALARGFTAAGILSAHKIIASSPEMNLPTVSALRKMGVNLTRSNKETVKHSDVLFLAVKPHIIPFILDEIGADVQARHIVVSCAAGVTISSVEKKLMAFQPAPKVIRCMTNTPVVVQEGATVYATGTHALVEDGQLLEQLMSSVGFCTEVEEDLIDAVTGLSGSGPAYAFMALDALADGGVKMGLPRRLAIQLGAQALLGAAKMLLDSEQHPCQLKDNVCSPGGATIHALHFLESGGFRSLLINAVEASCIRTRELQSMADQEKISPAALKKTLLDRVKLESPTVSTLTPSSPGKLLTRSLALGGKKD [PYCR2]”, the melting temperature in the data set with HeLa Kyoto [1] (cell cycle stage: G1/S) worked out at 54.9 °C; in the data set with HeLa Kyoto [1] (cell cycle stage: mitosis), 54.5 °C. Also, the thermal stability score in the data set on HeLa Kyoto [2] (setting [5]) is 1.32; in the data set with HeLa Kyoto [2] (cell cycle stage: mitosis), -3.51. For the same substance, in the data set with HeLa Kyoto [3], the “solubility in G1/S (log2)” value amounted to 0.291. The “solubility change mitosis (log2)” value with HeLa Kyoto [4] is -0.0672.

For “MKRQGASSERKRARIPSGKAGAANGFLMEVCVDSVESAVNAERGGADRIELCSGLSEGGTTPSMGVLQVVKQSVQIPVFVMIRPRGGDFLYSDREIEVMKADIRLAKLYGADGLVFGALTEDGHIDKELCMSLMAICRPLPVTFHRAFDMVHDPMAALETLLTLGFERVLTSGCDSSALEGLPLIKRLIEQAKGRIVVMPGGGITDRNLQRILEGSGATEFHCSARSTRDSGMKFRNSSVAMGASLSCSEYSLKVTDVTKVRTLNAIAKNILV [CUTC]”, the melting temperature in the data set with HeLa Kyoto [1] (cell cycle stage: G1/S) was 54.4 °C; with HeLa Kyoto [1] (cell cycle stage: mitosis), 54.1 °C. Moreover, the thermal stability score in the data set on HeLa Kyoto [2] (setting [5]) is -0.146; in the data set on HeLa Kyoto [2] (cell cycle stage: mitosis) it was -0.357. The “solubility in G1/S (log2)” value in the data set on HeLa Kyoto [3] was -0.00165. Also, the “solubility change mitosis (log2)” value in the data set with HeLa Kyoto [4] was -0.0574.

With ATP5H, the melting temperature with HeLa Kyoto [1] (cell cycle stage: G1/S) came out at 54.9 °C; with HeLa Kyoto [1] (cell cycle stage: mitosis), 52.9 °C. Moreover, the thermal stability score is -5.39 in the data set on HeLa Kyoto [2] (setting [5]) and -6.92 in the data set with HeLa Kyoto [2] (cell cycle stage: mitosis). Also, the “solubility in G1/S (log2)” value in the data set on HeLa Kyoto [3] turned out to be 0.0908. Also, the “solubility change mitosis (log2)” value with HeLa Kyoto [4] was found to be 0.46.

“MASSSPDSPCSCDCFVSVPPASAIPAVIFAKNSDRPRDEVQEVVFVPAGTHTPGSRLQCTYIEVEQVSKTHAVILSRPSWLWGAEMGANEHGVCIGNEAVWTKEPVGEGEALLGMDLLRLALERSSSAQEALHVITGLLEHYGQGGNCLEDAAPFSYHSTFLLADRTEAWVLETAGRLWAAQRIQEGARNISNQLSIGTDISAQHPELRTHAQAKGWWDGQGAFDFAQIFSLTQQPVRMEAAKARFQAGRELLRQRQGGITAEVMMGILRDKESGICMDSGGFRTTASMVSVLPQDPTQPCVHFLTATPDPSRSVFKPFIFGMGVAQAPQVLSPTFGAQDPVRTLPRFQTQVDRRHTLYRGHQAALGLMERDQDRGQQLQQKQQDLEQEGLEATQGLLAGEWAPPLWELGSLFQAFVKRESQAYA [SCRN2]”: the melting temperature in the data set on HeLa Kyoto [1] (cell cycle stage: G1/S) came out at 51 °C; in the data set on HeLa Kyoto [1] (cell cycle stage: mitosis), 51.1 °C. In addition, the thermal stability score worked out at 0.593 in the data set with HeLa Kyoto [2] (setting [5]) and 0.947 in the data set with HeLa Kyoto [2] (cell cycle stage: mitosis). Also, the “solubility in G1/S (log2)” value with HeLa Kyoto [3] is 0.282. For the same substance, the “solubility change mitosis (log2)” value in the data set with HeLa Kyoto [4] was -0.201.
